Assay results as given in article PMC10482915, “Hornerin mediates phosphorylation of the polo-box domain in Plk1 by Chk1 to induce death in mitosis” (Cell Death and Differentiation, 2023).

Target: T1, His-Plk1 WT (human, UniProt P53350 1-603)
T1 construct: polo-like kinase 1 (Plk1), human; PCR product of the human Plk1 gene cloned into pET-28a; also called recombinant His-Plk1; His6-tagged Plk1 WT; source: E. coli BL21 DE3, purified (Ni2+-NTA-agarose)
Experiment: pull-down; recombinant Chk1 incubated with recombinant His-Plk1, pulled down with Ni-beads; immunoblotting
Conditions: both partners purified

T1 sequence (P53350 whole entry): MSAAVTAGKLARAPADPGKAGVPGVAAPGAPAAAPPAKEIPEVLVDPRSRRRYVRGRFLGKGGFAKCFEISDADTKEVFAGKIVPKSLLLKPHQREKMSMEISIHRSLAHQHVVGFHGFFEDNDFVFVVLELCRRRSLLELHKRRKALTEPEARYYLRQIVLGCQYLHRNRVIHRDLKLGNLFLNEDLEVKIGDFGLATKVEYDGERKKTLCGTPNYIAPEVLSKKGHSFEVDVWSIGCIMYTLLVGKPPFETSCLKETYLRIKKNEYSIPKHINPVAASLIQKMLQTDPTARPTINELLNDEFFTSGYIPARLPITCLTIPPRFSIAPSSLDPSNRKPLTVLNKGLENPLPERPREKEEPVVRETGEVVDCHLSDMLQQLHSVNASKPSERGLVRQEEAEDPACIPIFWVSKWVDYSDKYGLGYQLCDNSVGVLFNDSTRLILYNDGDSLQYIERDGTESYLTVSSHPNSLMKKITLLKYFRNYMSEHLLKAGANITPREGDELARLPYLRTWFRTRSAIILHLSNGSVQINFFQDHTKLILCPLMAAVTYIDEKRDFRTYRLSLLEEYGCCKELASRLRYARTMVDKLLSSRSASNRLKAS

B1: recombinant Chk1 (enzyme, human, UniProt O14757 1-476, looked up)
chain: MAVPFVEDWDLVQTLGEGAYGEVQLAVNRVTEEAVAVKIVDMKRAVDCPENIKKEICINKMLNHENVVKFYGHRREGNIQYLFLEYCSGGELFDRIEPDIGMPEPDAQRFFHQLMAGVVYLHGIGITHRDIKPENLLLDERDNLKISDFGLATVFRYNNRERLLNKMCGTLPYVAPELLKRREFHAEPVDVWSCGIVLTAMLAGELPWDQPSDSCQEYSDWKEKKTYLNPWKKIDSAPLALLHKILVENPSARITIPDIKKDRWYNKPLKKGAKRPRVTSGGVSESPSGFSKHIQSNLDFSPVNSASSEENVKYSSSQPEPRTGLSLWDTSPSYIDKLVQGISFSQPTCPDHMLLNSQLLGTPGSSQNPWQRLVKRMTRFFTKLDADKSYQCLKETCEKLGYQWKKSCMNQVTISTTDRRNNKLIFKVNLLEMDDKILVDFRLSKGDGLEFKRHFLKIKGKLIDIVSSQKIWLPAT
notes: checkpoint kinase 1 (Chk1), human recombinant kinase; the SignalChem kinase is named only for the kinase assay; also called human recombinant Chk1 kinase; checkpoint kinase 1; source: bought: SignalChem (named for the kinase assay)
binding result: binds
